The results in this text go back to the supplement of paper PMC12042874.

± gives the uncertainty stated by the source.

This data set is described as follows: amyloid nucleation score (Sup35N fusion, yeast selection) (log enrichment); library NNK2; higher = more nucleation; inactive = no reads after selection. The procedure, abridged: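 Sup35N was fused to peptides of 20 random codons and expressed in psi-negative yeast, which were induced with 100 μM copper sulfate for 24 hours and then grown on medium lacking adenine and uracil for 7 days at 30°C. Plasmid inserts from input and output were sequenced on Illumina. The nucleation score is the DiMSum log enrichment of output over input reads, centred on the mode score of non-aggregating sequences. Sequences with under 100 input reads were left out, and random libraries had three technical output replicates.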
As to KSDQLGCRLVDRGNCFSNRL, the amyloid nucleation score result is “inactive”.
As for KSEKTHRIAMLNMSLVSYMR, the figure is 3.97 ± 0.053; as for KSNLCLNVHGSLGICPTHDL, 0.178 ± 0.37.
Substance KSPFVICGKRDVRK came in with an amyloid nucleation score of -1.28 ± 1.1.
In the case of KSPPFMGSAERVSRRNGRGL it was -0.417 ± 0.36; in that of KSQLYNYAVSM, -1.59 ± 0.64; in that of KSQVPPNFWVVMCLTEFSVV, 5.628 ± 0.046.
As for KSRISMPPSVLLDYGLAHNA, the figure is -0.598 ± 0.63; as for KSSEHRGCLICTIIAVDL, 6.977 ± 0.039; as for KSTLANHFTVLIGDTADLHG, “inactive”.
As for KSVGVQALMLAKGIYFSING, the figure is 1.53 ± 0.28; as for KSVTVGADHNVDVGVAEMIR, 1.79 ± 0.32.
In turn, KTCRFLCA registered an amyloid nucleation score of 0.176 ± 0.64.
In the case of KTCSACVSIKICLLNDGGNW it was 9.63 ± 0.052; in that of KTCSDMWYAVRHSNHETSV, 1.34 ± 0.52.
In the case of KTLKNEFVDMNQMIYNY it was -0.489 ± 0.79; in that of KVFSNIVMLLSVRLCCLMKI, -1.58 ± 1.1.
As for KVGERISPELSGMFYGTLWY, the figure is -0.305 ± 0.74; as for KVIPVALNTRIAWGTHRLMM, 0.958 ± 0.27.
Take KVMIVNRVIYTNRFNQGLTM: the amyloid nucleation score was 7.705 ± 0.051.
As for KVSYMFLVTLSYGSWFPSSM, the figure is -0.545 ± 0.45.
As for KWDHPKEVFCSVRTSGRGVE, the figure is 2.04 ± 0.072; as for KWFNVCIWKCAWLYIDGVGC, 3.95 ± 0.066; as for KWGRCSIGT, “inactive”.
In the case of KWKLMCDAFLS it was -0.969 ± 0.48.
Substance KWRDRNDINNFRQGLLCSVN yielded an amyloid nucleation score of 3.03 ± 0.14.
Substance KWSYSPVGKHYLYMMWDGHS showed an amyloid nucleation score of 0.409 ± 0.3.
In the case of KWYFRSWRLMLYSVKFSFRI it was -0.693 ± 0.55; in that of KYRYRLVQR, -0.656 ± 1.1.
As for KYTVSLVDLGCFQSKGCDST, the entry is “inactive”; as for KYVGWQYLSSCILGVFPLAG, 0.151 ± 0.32.
As to KYVIR, the amyloid nucleation score was -0.606 ± 1.1.
In the case of KYVWSVEGKVAVAGVAMSCA it was 0.025 ± 1.1.
Take KYYRQSCQDRPILFDVALYY: the amyloid nucleation score entry was “inactive”.
In the case of LAFDK, the amyloid nucleation score result was “inactive”.
Turning to LAGRC, the amyloid nucleation score was 0.968 ± 0.56.
The substance LALKGLLFSHNGKLEKGQV registered an amyloid nucleation score of -0.17 ± 0.79.
In turn, LALMFLYAALFHAAR returned an amyloid nucleation score of 7.139 ± 0.058.
Consider LALNLQNCTRGGFTILTVS, for which the amyloid nucleation score entry is “inactive”.
In the case of LAMYLWCTELP it was -0.057 ± 0.63; in that of LARFSDMDKMKGSVGFWALK, -0.014 ± 0.62; in that of LASSKEACVHTVMAIVSVGA, 2.08 ± 0.12.
As for LASYLRFSISSVIFNTRAIL, the figure is -0.315 ± 0.54; as for LATKTLSMSLESICRNTVAF, “inactive”.
Consider LAWWFY, for which the amyloid nucleation score is -0.325 ± 0.76.
Consider LCARALLH, for which the amyloid nucleation score came to 0.905 ± 0.32.
In turn, LCDIIQAF came in with an amyloid nucleation score of -0.626 ± 1.1.
As for LCGMLYAAAGHWFSVMPPGD, the figure is 0.997 ± 0.32; as for LCIIWVVRFYALWWSEPMGW, 1.14 ± 0.18; as for LCILVFRGASRSLFSGGVFT, -0.199 ± 0.76.
As for LCIPSVTTDS, the entry is “inactive”.
LCLRDFSFDGLVGSR: the amyloid nucleation score stood at 0.119 ± 0.65.
As for LCMCLRNMLSPAMVVTSNPP, the figure is 0.737 ± 0.2.
In the case of LCMRTFGLHHCPGYG it was 1.2 ± 0.37; in that of LCRIDRVWQLGYRWLYQDVV, 4.34 ± 0.084.
In the case of LCRYFQN it was 0.218 ± 0.8; in that of LCSTHVMKLWFYVSFLLF, -0.397 ± 0.78.
For LCTTNSLF, the amyloid nucleation score was -0.671 ± 0.38.
For the substance LCWSYCRVKCGHMFVGVRGS, the amyloid nucleation score was found to be 0.58 ± 0.56.
Consider LDATNSKNVYRMPAWKGNMR, for which the amyloid nucleation score worked out at 0.564 ± 0.32.
As to LDILIYLKILDISFGNESCM, the amyloid nucleation score is 0.002 ± 0.17.
Take LDISSDPFFSS: the amyloid nucleation score was -1.25 ± 1.1.
As to LDLGAPPWH, the amyloid nucleation score came to 1.03 ± 0.36.
As for LDNYCFHAASYSQHNSSTGP, the figure is 0.804 ± 0.46; as for LDPNSYHKSRWFNMMSFIRV, 0.611 ± 0.81.
Regarding LDYLGETNLLVRWHLAVTAS, the amyloid nucleation score stood at 0.626 ± 0.16.
In the case of LEAISCKWYTLYVVYSCNSW it was -0.877 ± 1.
As for LECNDA, the figure is 0.322 ± 0.51; as for LELVCRPISMSGWSGYHTCR, 0.983 ± 0.41; as for LEVLVLDVYSYVSLHVGTFV, 0.051 ± 0.35.
In the case of LEVYVLFTVTYAVMRMNMDG it was 0.302 ± 0.56; in that of LEYFITTSGSSSKVLHGFTM, -0.986 ± 1.1.
Turning to LFAYYGWVFYMSIRCVHMGM, the amyloid nucleation score was -0.583 ± 1.1.
As for LFDGARINTVNECVYWNS, the entry is “inactive”; as for LFDGRNYF, -0.669 ± 0.46; as for LFDSLPDYITTYYNNDAQQG, -1.85 ± 1.
In turn, LFDVADIDA registered an amyloid nucleation score of 0.736 ± 0.74.
As for LFESMPGCDDSNELIFWGIA, the figure is -0.722 ± 0.28.
As for LFGGRGKRVRLKVLLTQRF, the figure is -0.37 ± 0.32; as for LFGHRFPSYL, -0.152 ± 1.
In the case of LFGNWSFVVNRCVVSLKLM, the amyloid nucleation score result was “inactive”.
As to LFIDLEMLFSPRN, the amyloid nucleation score worked out at 5.471 ± 0.048.
LFIICNSVVHMDLASVGNVS showed an amyloid nucleation score of 8.409 ± 0.043.
As for LFIYYWYLLFYGSPYIWLPV, the figure is -0.363 ± 1.1; as for LFLCYFIRT, 2.17 ± 0.1; as for LFMKRER, -0.179 ± 0.76.
In the case of LFMLYCFHLQDMKRVQICVH it was 0.188 ± 0.19; in that of LFNAVGLATV, 0.33 ± 0.74; in that of LFSALFGRW, 4.26 ± 0.05.
In the case of LFSTYRNFIFVIHSADMCKS it was -0.558 ± 1; in that of LFTVLKTVWANNNTYDSKQK, -1.23 ± 0.78; in that of LFTVWVASVVWSCADVA, -1.34 ± 0.78.
For the substance LFVLVREVNVLTFLCPSEDQ, the amyloid nucleation score turned out to be 8.52 ± 0.066.
In the case of LGDRCNS it was 2.36 ± 0.11.
In the case of LGFHWIRNGGGLVTVNLVCV it was 0.747 ± 0.27; in that of LGFMNCSLMHAGRVGPREHF, 2.72 ± 0.13; in that of LGHTH, 1.06 ± 0.53.
In the case of LGIVVVHWTPIIAGW it was -1.11 ± 0.56; in that of LGNWCGYWYFHHISSYGLMR, -0.419 ± 0.5.
For the substance LGPTVYDFLHMCFYFRA, the amyloid nucleation score amounted to 4.74 ± 0.065.
In the case of LGSRGSRSIAESFAGKIRI it was -0.226 ± 1.1.
As for LGVNYAMNVTSGSQTFMRDG, the figure is -0.243 ± 1.
In the case of LGYSLAACNQETGNDRYMAR it was 0.121 ± 0.34; in that of LHIMVFQYLKWHTAI, -0.07 ± 0.49; in that of LHMCHWDSYSE, 1.36 ± 0.35.
Turning to LHNDLLKVNSERENNNDLGS, the amyloid nucleation score was determined as 0.089 ± 0.5.
As for LHQGKPYITLALYRFLHGSR, the figure is -1.15 ± 1.1; as for LHRYRNAQVSWE, -0.512 ± 0.74.
In the case of LHSYVFTKGSRTQCRWRKNP it was 0.07 ± 0.28.
Take LICGARYINFSGKGNY: the amyloid nucleation score came out at 0.023 ± 0.29.
In the case of LILDILSRGSAYYDCTRMKG it was “inactive”; in that of LILSSSSLVGVALRRVYCVT, -0.809 ± 0.34; in that of LILTCPCMCRFYVWGSTQYR, -0.313 ± 0.39.
In the case of LILTFLEWNLFFYSFNIFTY it was 5.39 ± 0.078; in that of LIPLIVLGGTDSFKELYGYE, -0.624 ± 0.61; in that of LISEVALGFAPMKIVRGFLD, -0.284 ± 0.56.
Take LISGRMHNVCEPGAKSRTLR: the amyloid nucleation score was determined as 0.76 ± 0.18.
In the case of LISVDFRYYGYVVLGWISTL it was 0.807 ± 0.1; in that of LISWFWWENLKLCCSIFCFI, 4.4 ± 0.051.
In the case of LITINLSV it was 8.427 ± 0.049; in that of LIVCWGMWFLQW, -1.74 ± 1.1; in that of LKDVGPYQRVRRGTVRYA, 0.756 ± 0.4.
As for LKLFNGVRPKNGM, the figure is -1.6 ± 0.75; as for LKLYPGIFIICVRTMDFVFW, “inactive”; as for LKNVCFCIWRISWNKISQKI, “inactive”.
In the case of LKPCLRFFNIIT, the amyloid nucleation score amounted to 3.44 ± 0.1.
As for LKQDKGITGEVVGVRILGS, the figure is 0.22 ± 0.32; as for LKTLIKDPMLYGQALSRVFC, -0.737 ± 1.1; as for LKWQSYG, 0.952 ± 0.28.
In the case of LLCFHTHLRKAMGVTINSIS it was -1.19 ± 0.49.
In the case of LLCQITRVAIPCHVCGDDVA it was 3.81 ± 0.13.
Turning to LLEYCCYFYRN, the amyloid nucleation score came out at 3.57 ± 0.12.
In the case of LLFKMAYRPLWHDNNMMTCM it was 0.112 ± 0.79.
As for LLFPM, the figure is 0.647 ± 0.8.
Consider LLGLSGKYWIRGSKNSIFVW, for which the amyloid nucleation score is 0.157 ± 0.39.
As for LLGQLKFLFLDVFLWLYVCS, the figure is 1.56 ± 0.22; as for LLHGSLWAQSMSLCWLNVTG, 4.24 ± 0.088.
In the case of LLHNIDVRTSRME it was -0.846 ± 0.44; in that of LLIKSSCFCSLDVFFS, 3.69 ± 0.089; in that of LLKKRANGYHYSKNLKCPAR, -1.29 ± 1.1.
